# ± gives the standard deviation of the averaged measurements.
# Test system: ATP
# Test: switch fluorescence ratio, 500 uM ATP over buffer (Cy3 cluster intensity, sum of 5 cycles each) (fold (ratio)); higher = stronger signal-on switching upon ATP binding; sequences stand for … in TCGTCGGCAGCGTCAGATGTGTATAAGAGACAGTTTTTTTTTTTTTTTTTTTTTTTTT…TC
# Settings: aptamer strand: ATP DNA aptamer (quencher-CACCTGGGGGAGTATTGCGGAGGAAGG + anchor), 100 nM annealed; ATP concentration: 500 uM
# Outline: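 Clusters with intensities outside 100-1000 RFU were excluded. The remaining Cy3-labelled switching-strand clusters on a modified Illumina MiSeq flow-cell had been annealed to 100 nM quencher-labelled ATP aptamer and imaged in selection buffer, then after 15 min with 500 uM ATP at 22 °C, for five cycles separated by NaOH stripping and re-annealing. The fluorescence ratio, averaged per switch-domain sequence, is each cluster's summed target-cycle Cy3 intensity over its summed buffer-cycle Cy3 intensity.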
# 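Also: ATP exposure 15 min at 22 °C before imaging.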
row,Sequence,switch fluorescence ratio
1,CGATTGTGCG,1.04 ± 0.029
2,TTAGTAGAAC,0.993 ± 0.013
3,CGCCTTAATT,1.01 ± 0.042
4,ACTGATGATC,1.016 ± 0.0039
5,CGGGGAGACG,0.929 ± 0.13
6,GGGAAGATTC,1.01 ± 0.04
7,GTGTGCCGCA,0.977 ± 0.031
8,ATTGGTTGTG,0.988 ± 0.035
9,GAAATCCGAA,1.08 ± 0.058
10,AACGGCGTGA,1.08 ± 0.14
11,ATTCACATCG,1.01 ± 0.06
12,CATGTTTTGC,1.01 ± 0.065
13,TGACAACAGC,1.049 ± 0.0091
14,GGGAGACAGA,0.957 ± 0.074
15,TCTACGGCGT,0.9991 ± 0.0059
16,TCACTGGGTG,1.23 ± 0.035
17,GGAGTTGGGA,1.021 ± 0.0066
18,GTTCTCAGAT,0.982 ± 0.013
19,TCGGAGTGGG,1.03 ± 0.043
20,TTAGGAATGT,1.03 ± 0.047
21,TTAGAGGACG,1.02 ± 0.025
22,GCAGGAAATG,0.992 ± 0.011
23,GATGCACTCC,1.911 ± 0.0078
24,CTACAAAGGG,1.005 ± 0.0037
25,ACGGGCAAGC,1.72 ± 0.23

row,Sequence,switch fluorescence ratio
1,TCGGGATTTT,0.997 ± 0.041
2,ATTCGTGGGA,0.9892 ± 0.0074
3,TAGATAAGGC,0.981 ± 0.018
4,GGTGGTTTTT,1.03 ± 0.099
5,AAGCGCCCGG,1.05 ± 0.04
6,ACATACTGCA,1.29 ± 0.14
7,CGGTGGTTGG,1 ± 0.029
8,TTACTTTGTT,1.02 ± 0.023
9,GTGAGCTGAT,1.023 ± 0.0081
10,ATTTTCGGTT,0.997 ± 0.034
11,GGATAGTAGG,0.9956 ± 0.0083
12,GAGTACTCCT,1.04 ± 0.04
13,CATGTAAGGC,1.03 ± 0.021
14,TAGTCGCGTA,1.05 ± 0.035
15,ATCGTGGATT,0.969 ± 0.019
16,TTTATGTCGG,1.004 ± 0.0091
17,GGTGCACCGA,0.9884 ± 0.0063
18,ACATTCGGGC,1.02 ± 0.041
19,CTGGCGGGGA,1.02 ± 0.025
20,TTTTTAATCT,0.9902 ± 0.0083
21,TGAGAAGTTT,0.992 ± 0.023
22,ACGGAATCCT,1.19 ± 0.018
23,GGGTCCGGCG,0.995 ± 0.034
24,TTATGATTGT,1.02 ± 0.03
25,GGGGTTTGCG,0.973 ± 0.011

row,Sequence,switch fluorescence ratio
1,ATTCATTCGG,0.992 ± 0.026
2,TTGTATGGGT,0.98 ± 0.019
3,GAAATAAATA,0.9835 ± 0.0081
4,ACCTGGCAAA,1.09 ± 0.043
5,TGGTTGTTGC,0.998 ± 0.043
6,GAATCTCGGA,1.018 ± 0.0018
7,GGGGGGTGCT,1.02 ± 0.03
8,GGGGCTGGGG,1.01 ± 0.034
9,TACGTTTTGT,1.01 ± 0.011
10,AATTTCGGGA,1.01 ± 0.044
11,GCTATGTAGG,1 ± 0.062
12,TCATAGATTT,0.988 ± 0.013
13,TAGGTTTGTG,0.993 ± 0.03
14,CGGGGGGGA,1.0242 ± 0.00033
15,CTTAAACAGC,1.02 ± 0.063
16,ATTAGAGTGT,0.965 ± 0.04
17,TTAGATTGGG,0.9736 ± 0.0075
18,GCTCGGGGGA,0.978 ± 0.022
19,CTTCTGAGGG,1.02 ± 0.012
20,TTGGGGGTAG,1.04 ± 0.13
21,CTCGGGCAGG,1.01 ± 0.032
22,TCAAGCGGGG,1.06 ± 0.09
23,TGGGTTGATA,0.9958 ± 0.0069
24,AAACTGAAAT,1.76 ± 1.1
25,GGGGATTTGT,0.994 ± 0.034

row,Sequence,switch fluorescence ratio
1,TCCTATTAGG,0.9888 ± 0.0054
2,TTAAAAAATT,1.02 ± 0.039
3,ATAATCGAGT,0.9837 ± 0.0076
4,ATAGTGAGCG,1.01 ± 0.025
5,GCTGTACGCG,1.03 ± 0.029
6,CATTGGTAGT,0.977 ± 0.035
7,CGTAATTTCA,1.02 ± 0.013
8,GTCGGGGTTA,0.989 ± 0.036
9,GGGTGGGCTT,0.997 ± 0.032
10,TATACACATT,1.02 ± 0.035
11,TATAATAGCT,1.02 ± 0.023
12,GGGCTGTCTG,0.9631 ± 0.0076
13,ACCTCTTATA,1.05 ± 0.014
14,TTATGCTTGG,0.976 ± 0.031
15,GTGAGGGGGA,1 ± 0.033
16,AATTTGAGTG,0.977 ± 0.032
17,CCAAAAGGCT,1.08 ± 0.044
18,TATAGGGGTT,1.02 ± 0.061
19,AATAAGGGTG,1.09 ± 0.14
20,GAGATTGTGG,0.9652 ± 0.0048
21,TTCGGTGTGG,1.01 ± 0.04
22,TGGGAGGTTC,1.03 ± 0.02
23,CGGGGCGGTT,1 ± 0.032
24,GGGGTACACG,0.979 ± 0.027
25,TTGTTTATAT,0.9853 ± 0.0053
